Results published in the supplement of paper PMC11316812.
± gives the standard deviation of the averaged measurements.

Columns and labels:
MCF7 = assay: percentage of EdU-negative (G0-arrested) nuclei per well, 72 h; higher = more G0 arrest; conditions: reference: sequence is the full UniProt precursor, the tested protein was the secreted form or ectodomain
hTERT-HMEC = assay: as above; conditions: reference: sequence is the full UniProt precursor, the tested protein was the secreted form or ectodomain
[1] = protein concentration 0.0225 µM
[2] = protein concentration 0.0357143 µM
[3] = protein concentration 0.357143 µM
[4] = protein concentration 0.01025 µM
[5] = protein concentration 0.1025 µM
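Also: secreted proteins added to cultured cells, EdU pulse at the end, nuclei found by Hoechst imaging, EdU status from nuclear versus surrounding ring intensity ratio, PBS as neutral control.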

Sequence | percentage of EdU-negative (MCF7; [1]) | percentage of EdU-negative (MCF7; protein concentration 0.225 µM) | percentage of EdU-negative (hTERT-HMEC; [1]) | percentage of EdU-negative (hTERT-HMEC; protein concentration 0.225 µM) | also measured
MEKILILLLVALSVAYAAPGPRGIIINLENGELCMNSAQCKSNCCQHSSALGLARCTSMASENSECSVKTLYGIYYKCPCERGLTCEGDKTIVGSITNTNFGICHDAGRSKQ | 23.9 ± 2.4% | 28.37 ± 0.035% | 5.19 ± 0.81% | 6.85 ± 1.2% | 
MCTKTIPVLWGCFLLWNLYVSSSQTIYPGIKARITQRALDYGVQAGMKMIEQMLKEKKLPDLSGSESLEFLKVDYVNYNFSNIKISAFSFPNTSLAFVPGVGIKALTNHGTANISTDWGFESPLFQDTGGADLFLSGVYFTGIIILTRNDFGHPTLKLQDCYAQLSHAHVSFSGELSVLYNSFAEPMEKPILKNLNEMLCPIIASEVKALNANLSTLEVLTKIDNYTLLDYSLISSPEITENYLDLNLKGVFYPLENLTDPPFSPVPFVLPERSNSMLYIGIAEYFFKSASFAHFTAGVFNVTLSTEEISNHFVQNSQGLGNVLSRIAEIYILSQPFMVRIMATEPPIINLQPGNFTLDIPASIMMLTQPKNSTVETIVSMDFVASTSVGLVILGQRLVCSLSLNRFRLALPESNRSNIEVLRFENILSSILHFGVLPLANAKLQQGFPLSNPHKFLFVNSDIEVLEGFLLISTDLKYETSSKQQPSFHVWEGLNLISRQWRGKSAP [Q8NFQ6] |  |  |  |  | percentage of EdU-negative (MCF7; [2]): 25.1 ± 3.5%; percentage of EdU-negative (MCF7; [3]): 31.5 ± 2.8%; percentage of EdU-negative (hTERT-HMEC; [2]): 5.01 ± 0.62%; percentage of EdU-negative (hTERT-HMEC; [3]): 21.7 ± 0.58%
MAEGNTLISVDYEIFGKVQGVFFRKHTQAEGKKLGLVGWVQNTDRGTVQGQLQGPISKVRHMQEWLETRGSPKSHIDKANFNNEKVILKLDYSDFQIVK [G3V2U7] | 24.4 ± 1.6% | 25.9 ± 3.2% | 4.35 ± 0.4% | 5.31 ± 0.75% | 
MAWSLGSWLGGCLLVSALGMVPPPENVRMNSVNFKNILQWESPAFAKGNLTFTAQYLSYRIFQDKCMNTTLTECDFSSLSKYGDHTLRVRAEFADEHSDWVNITFCPVDDTIIGPPGMQVEVLADSLHMRFLAPKIENEYETWTMKNVYNSWTYNVQYWKNGTDEKFQITPQYDFEVLRNLEPWTTYCVQVRGFLPDRNKAGEWSEPVCEQTTHDETVPSWMVAVILMASVFMVCLALLGCFALLWCVYKKTKYAFSPRNSLPQHLKEFLGHPHHNTLLFFSFPLSDENDVFDKLSVIAEDSESGKQNPGDSCSLGTPPGQGPQS |  |  |  |  | percentage of EdU-negative (MCF7; protein concentration 0.034 µM): 24.3 ± 0.92%; percentage of EdU-negative (MCF7; protein concentration 0.34 µM): 26.5 ± 1.1%; percentage of EdU-negative (hTERT-HMEC; protein concentration 0.034 µM): 5.95 ± 2.1%; percentage of EdU-negative (hTERT-HMEC; protein concentration 0.34 µM): 7.32 ± 0.51%
MHLIDYLLLLLVGLLALSHGQLHVEHDGESCSNSSHQQILETGEGSPSLKIAPANADFAFRFYYLIASETPGKNIFFSPLSISAAYAMLSLGACSHSRSQILEGLGFNLTELSESDVHRGFQHLLHTLNLPGHGLETRVGSALFLSHNLKFLAKFLNDTMAVYEAKLFHTNFYDTVGTIQLINDHVKKETRGKIVDLVSELKKDVLMVLVNYIYFKALWEKPFISSRTTPKDFYVDENTTVRVPMMLQDQEHHWYLHDRYLPCSVLRMDYKGDATVFFILPNQGKMREIEEVLTPEMLMRWNNLLRKRNFYKKLELHLPKFSISGSYVLDQILPRLGFTDLFSKWADLSGITKQQKLEASKSFHKATLDVDEAGTEAAAATSFAIKFFSAQTNRHILRFNRPFLVVIFSTSTQSVLFLGKVVDPTKP |  |  |  |  | percentage of EdU-negative (MCF7; protein concentration 0.022 µM): 25 ± 1.3%; percentage of EdU-negative (MCF7; protein concentration 0.22 µM): 28.9 ± 0.99%; percentage of EdU-negative (hTERT-HMEC; protein concentration 0.022 µM): 4.571 ± 0.028%; percentage of EdU-negative (hTERT-HMEC; protein concentration 0.22 µM): 4.09 ± 0.62%
MAAQGCAASRLLQLLLQLLLLLLLLAAGGARARWRGEGTSAHLRDIFLGRCAEYRALLSPEQRNKNCTAIWEAFKVALDKDPCSVLPSDYDLFINLSRHSIPRDKSLFWENSHLLVNSFADNTRRFMPLSDVLYGRVADFLSWCRQKNDSGLDYQSCPTSEDCENNPVDSFWKRASIQYSKDSSGVIHVMLNGSEPTGAYPIKGFFADYEIPNLQKEKITRIEIWVMHEIGGPNVESCGEGSMKVLEKRLKDMGFQYSCINDYRPVKLLQCVDHSTHPDCALKSAAAATQRKAPSLYTEQRAGLIIPLFLVLASRTQL | 25.74 ± 0.03% | 23.5 ± 0.97% | 5.33 ± 0.28% | 5.57 ± 1% | 
MARGGRGRRLGLALGLLLALVLAPRVLRAKPTVRKERVVRPDSELGERPPEDNQSFQYDHEAFLGKEDSKTFDQLTPDESKERLGKIVDRIDNDGDGFVTTEELKTWIKRVQKRYIFDNVAKVWKDYDRDKDDKISWEEYKQATYGYYLGNPAEFHDSSDHHTFKKMLPRDERRFKAADLNGDLTATREEFTAFLHPEEFEHMKEIVVLETLEDIDKNGDGFVDQDEYIADMFSHEENGPEPDWVLSEREQFNEFRDLNKDGKLDKDEIRHWILPQDYDHAQAEARHLVYESDKNKDEKLTKEEILENWNMFVGSQATNYGEDLTKNHDEL | 22.7 ± 0.8% | 25.5 ± 0.44% | 4.56 ± 0.49% | 6.14 ± 0.11% | 
MSRELAPLLLLLLSIHSALAMRICSFNVRSFGESKQEDKNAMDVIVKVIKRCDIILVMEIKDSNNRICPILMEKLNRNSRRGITYNYVISSRLGRNTYKEQYAFLYKEKLVSVKRSYHYHDYQDGDADVFSREPFVVWFQSPHTAVKDFVIIPLHTTPETSVKEIDELVEVYTDVKHRWKAENFIFMGDFNAGCSYVPKKAWKNIRLRTDPRFVWLIGDQEDTTVKKSTNCAYDRIVLRGQEIVSSVVPKSNSVFDFQKAYKLTEEEALDVSDHFPVEFKLQSSRAFTNSKKSVTLRKKTKSKRS |  |  |  |  | percentage of EdU-negative (MCF7; [4]): 28.5 ± 1.3%; percentage of EdU-negative (MCF7; [5]): 27 ± 2%; percentage of EdU-negative (hTERT-HMEC; [4]): 4.824 ± 0.022%; percentage of EdU-negative (hTERT-HMEC; [5]): 5.74 ± 0.076%
